{"source": "patent US11312773B2", "about": "“Anti-PD-L1 antibody” (Fuso Pharmaceutical Industries, Ltd., priority 2016, dated 2022)", "key": {"[1]": {"biological_target": "T1, canine PD-1/PD-L1 binding (Canis lupus familiaris, UniProt A0A8I3P7C4)", "T1 construct": "made in house; host or cells: Expi293F", "T1 sequence (A0A8I3P7C4 19-237)": "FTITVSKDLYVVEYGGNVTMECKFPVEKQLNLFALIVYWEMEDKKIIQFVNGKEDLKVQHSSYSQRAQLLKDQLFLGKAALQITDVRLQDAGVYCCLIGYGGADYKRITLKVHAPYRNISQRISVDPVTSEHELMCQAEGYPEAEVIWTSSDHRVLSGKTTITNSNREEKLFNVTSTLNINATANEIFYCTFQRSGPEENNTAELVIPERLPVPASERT", "assay": "Canine PD-1/PD-L1 binding inhibition ELISA (cPD-1-Ig immobilized, biotinylated cPD-L1-Ig)", "conditions": "antibody 0, 2.5, 5 and 10 μg/ml", "protocol": "Briefly, canine PD-1-Ig (prepared in 2.4 above) was immobilized on flat bottomed 96-well plates and blocked with 1% BSA and 0.05% Tween 20-containing PBS. […] The binding of cPD-L1-Ig to cPD-1-Ig was measured by color reaction using Neutravidin-HRP (Thermo Fisher Scientific) and TMB one component substrate (Bethyl Laboratories).\nBriefly, heavy chain and light chain variable region genes were identified from hybridomas producing rat anti-bovine PD-L1 monoclonal antibodies 4G12 and 6G7. Further, the heavy chain and light chain variable region genes of the above rat antibodies were linked to the constant region of heavy chain IgG4 and the constant region of light chain Lambda of a known canine antibody, respectively, to prepare nucleotide sequences, followed by codon optimization (SEQ ID NOS: 9 and 10 (amino acid sequences), SEQ ID NOS: 19 and 20 (nucleotide sequences after codon optimization). Then, synthesis of genes was performed so that NotI restriction enzyme recognition site. KOZAK sequence, chimeric antibody's light chain sequence, poly-A addition signal sequence (PABGH), promoter sequence (PCMV), SacI restriction enzyme recognition site, intron sequence (INRBG), KOZAK sequence, chimeric antibody's heavy chain sequence and XbaI restriction enzyme recognition site would be located in this order. […]"}, "ovine PD-1/PD-L1 binding": {"tested_on": "ovine PD-1/PD-L1 binding", "assay": "Ovine PD-1/PD-L1 binding inhibition test (PD-1-EGFP COS-7 cells and PD-L1-Ig)", "conditions": "antibody 0-50 μg/ml, ovine PD-L1-Ig 1 μg/ml", "protocol": "(§1) Using ovine PD-1-EGFP expressing COS-7 cells and ovine PD-L1-Ig recombinant protein, or porcine PD-1-EGFP expressing COS-7 cells and porcine PD-L1-Ig recombinant protein, inhibition of ovine or porcine PD-1/PD-L1 binding by rat anti-bovine PD-L1 antibody […] was tested. […] Subsequently, the antibody 4G12 was reacted with 2×10^5 ovine PD-1-EGFP expressing COS-7 cells or porcine PD-1-EGFP expressing COS-7 cells at 37° C. for 30 min. After washing, ovine PD-L1-Ig or porcine PD-L1-Ig bound to cell surfaces was detected with Alexa Fluor 647-labeled anti-rabbit IgG (H+L) goat F(ab′)2 (Life Technologies). For analysis, FACS Verse (BD Biosciences) was used. As a negative control antibody, rat IgG2a (κ) isotype control (BD Biosciences) was used. Taking the proportion of PD-L1-Ig bound cells without antibody addition as 100%, the proportion of PD-L1-Ig bound cells at each antibody concentration was shown as relative value."}, "porcine PD-L1": {"tested_on": "porcine PD-L1", "assay": "Flow cytometry reactivity with porcine PD-L1-EGFP expressing COS-7 cells", "format": "binding", "conditions": "10 μg/ml", "protocol": "COS-7 cells were subcultured at a density of 5×10^4 cells/cm^2 in 6-well plates, and then cultured overnight in RPMI 1640 medium containing 10% inactivated fetal bovine serum and 0.01% L-glutamine at 37° C. in the presence of 5% CO2. The pEGFP-N2-ovPD-1, pEGFP-N2-ovPD-L1, pEGFP-N2-poPD-1, pEGFP-N2-poPD-L1 or pEGFP-N2 (negative control) was introduced into COS-7 cells at 0.4 μg/cm^2 using Lipofectamine 2000 (Invitrogen). The cells were cultured for 48 hours (ovPD-1-EGFP expressing cell, ovPD-L1-EGFP expressing cell, poPD-1-EGFP expressing cell, and poPD-L1-EGFP expressing cell). In order to confirm the expression of ovine PD-1, ovine PD-L1, porcine PD-1 and porcine PD-L1 in the thus prepared expressing cells, intracellular localization of EGFP was visualized with an inverted confocal laser microscope LSM700 (ZEISS) or an all-in-one fluorescence microscope BZ-9000 (KEYENCE). It was confirmed by flow cytometry that rat anti-bovine PD-L1 monoclonal antibody cross-reacts with ovine and porcine PD-LL. […] After washing, the cells were reacted with allophycocyanine-labeled anti-rat Ig goat antibody (Beckman Coulter) at room temperature for 30 min. For analysis, FACS Verse (BD Bioscience) was used. As a negative control antibody, rat IgG2a (κ) isotype control (BD Bioscience) was used. For every washing operation and dilution of antibodies, 1% bovine serum albumin supplemented PBS was used."}, "[2]": {"tested_on": "porcine PD-1/PD-L1 binding", "assay": "Porcine PD-1/PD-L1 binding inhibition test (PD-1-EGFP COS-7 cells and PD-L1-Ig)", "conditions": "antibody 0-50 μg/ml, porcine PD-L1-Ig 5 μg/ml", "protocol": "as §1"}}, "data": [{"molecule": "4G12: rat anti-bovine PD-L1 monoclonal antibody; VL SEQ ID NO: 1, VH SEQ ID NO: 2 (antibody, listed as Rattus norvegicus, V domains shown) VH: MGWSQIILFLVAAATCVHSQVQLQQSGAELVKPGSSVKISCKASGYTFTSNFMHWVKQQPGNGLEWIGWIYPEYGNTKYNQKFDGKATLTADKSSSTAYMQLSSLTSEDSAVYFCASEEAVISLVYWGQGTLVTVSS VL: MESQTHVLISLLLSVSGTYGDIAITQSPSSVAVSVGETVTLSCKSSQSLLYSENQKDYLGWYQQKPGQTPKPLIYWATNRHTGVPDRFTGSGSGTDFTLIISSVQAEDLADYYCGQYLVYPFTFGPGTKLELK", "values": [{"measurement": "Inhibitory activity against canine PD-1/PD-L1 binding", "setting": "[1]", "result": "reduced the amounts of binding"}, {"measurement": "Inhibition of ovine PD-1/PD-L1 binding", "setting": "ovine PD-1/PD-L1 binding", "result": "capable of inhibiting"}, {"measurement": "Binding to porcine PD-L1", "setting": "porcine PD-L1", "result": "binds to ovine and porcine PD-L1"}, {"measurement": "Inhibition of porcine PD-1/PD-L1 binding", "setting": "[2]", "result": "capable of inhibiting"}]}]}
